Measured values: publication PMC8646600 (Advanced Science, 2021)

Assays:
[1] = target: SARS-CoV-2 RBD titrated over immobilised Fabs (construct not stated) (SARS-CoV-2 (ancestral, Wuhan-Hu-1 …, UniProt P0DTC2)); assay: BLI; conditions: both partners purified
[2] = target: T1, SARS-CoV-2 spike RBD (S-RBD), hFc tag removed by thrombin digestion, biotinylated (SARS-CoV-2, UniProt P0DTC2); assay: BLI; conditions: both partners purified
[3] = target: T1, SARS-CoV-2 spike RBD (S-RBD), hFc tag …; assay: ELISA; conditions: both partners purified
[4] = target: T2, full-length SARS-CoV spike expressed on cells (SARS-CoV, strain , UniProt P59594); assay: flow cytometry on cells; conditions: one partner purified
T2 construct: source: HEK293T, transiently transfected, on cells

B1: S-B8 Fab (Fab, V domains shown)
VH: QVQLVQSGGGLIQPGGSLRLSCAASGFTVSLSHMNWVRQAPGKGLEWVSITYGDGNSDYADSVKGRFTISRDNSKNTLYLQMNSLRAEDTAVYYCAREYYYGMDVWGQGTTVTVSS
VL: not shown
In the case of B1, the Kd [1] is reported as 0.0154 µM.

B2: S-B8 full-length human IgG4e1(S228P) antibody (antibody, V domains shown)
VH: B1 VH
VL: not shown
notes: also called S-B8 IgG; source: HEK293F, secreted; clarified culture supernatant, and purified (Mabselect)
In the case of B2, the Kd [2] is reported as 0.00779 µM and the IC50 [3] is reported as 0.0129 µM.

B3: S-E6 Fab (Fab, V domains shown)
VH: QVTLRESGPGLVKPSETLSLTCAVSGGSLSSVNYYWSWIRQHPGKGLEWIGYIYYSGSTNYNPSLKSRVTMSLDTSKNQFSLKLSSVTAADTAVYYCATPGAIMGALHIWGQGTLVTVSS
VL: QAVLTQPSSASSTPGQRVIISCSGSSSNIGSNTVSWYQQVPGAAPKLLIYFDYRRPSGVPDRFSGTRSGTSASLGISGLQSEDEADYYCAAWDDSLSAWVFGRGTKLTVL
Work on B3 yielded a Kd [1] of 0.0114 µM.

B4: S-E6 full-length human IgG4e1(S228P) antibody (antibody, V domains shown)
VH: B3 VH
VL: B3 VL
notes: also called S-E6 IgG; source: HEK293F, secreted; clarified culture supernatant, and purified (Mabselect)
B4: no binding [4].
